Where a chain is given by its changes, count along the chain named. In names and notes the source's numbering stands. Values belong to the binder of their own block, whether it stands above or below them.
Tests used:
[1] = target: T1, monovalent hVISTA-ECD (amino acids 32-193 of SEQ ID NO: 1 with a 7xHis tail) (human, UniProt Q9H7M9 33-193); assay: SPR, Ab on Protein A, hVISTA 100-7.8 nM, pH 7.4
T1 construct: analyte of the SPR assays; also called huVISTA-His; human VISTA-ECD
Method: (§1) Further binding kinetic experiments were performed at various pHs on VISTA antibodies described herein by SPR as generally described in Example 9 above. Antibodies were normalized to 50 nM concentration in PBST pH 7.4 and captured on a Protein A CM5 chip (ID 4931) by injecting for 45 seconds at a 5 µL/min flow rate. An 8-point human VISTA titration ([…]) was prepared in PBST at pH 7.4, 6.9, 6.45, and 6.0. Titrations were injected over the captured antibodies for 180 seconds at 30 µL/min. Sensorgrams were fit to a 1:1 binding model in T200 evaluation software and the kinetic constants were reported.

[2] = target: T1, monovalent hVISTA-ECD (amino acids …); assay: SPR, pH 7.4 over pH 6.0
Method: as §1
(§2) Each table reports the data at one of the four tested pHs (7.4, 6.9, 6.45, and 6.0, respectively). The 8-point hVISTA titration used in these assays was chosen to provide increased confidence in kinetic values reported at neutral pH conditions. A relatively stringent cutoff for non-binding was applied in this assay. Certain progeny of P1-061029 antibody (P1-068757, ‘759, ‘765, ‘771, and ‘775) show no binding to hVISTA at micromolar concentrations at pH 7.4, while ‘761 and ‘767 show no binding to hVISTA at 100 nM at pH 7.4 but do show binding to hVISTA at micromolar concentrations.

[3] = target: T1, monovalent hVISTA-ECD (amino acids …); assay: SPR 37C, Ab on Protein A, hVISTA-ECD 50-5 nM, pH 7.4, average
Method: (§3) Binding of several preparations of each of the ‘029 progeny clones and of the parent ‘029 antibodies, formatted as IgG1.3 antibodies, to human VISTA at pH 6.0 and 7.4 was measured by Surface plasmon resonance (SPR). SPR analysis was performed to measure koff and KD binding affinity measurements for VISTA Abs at acidic and neutral pHs using a Biacore® T100 instrument (GE Healthcare). […] Antibodies were diluted to 25 nM in PBST pH 7.4, and were captured across active biosensor flow cells at 5 ul/min for 60 seconds. A concentration series of 50 - 5 nM monovalent hVISTA-ECD (SEQ ID NO: 325) was prepared in pH 7.4 and 6.0 running buffers, and was injected over the captured antibodies at 40 ul/min to measure association and dissociation. Two 15 second injections of 10 mM glycine pH 1.5 were used to regenerate the Protein A capture surface between assay cycles. Rate constants ka (kₒₙ) and kd (koff) were derived from reference flow cell and 0 nM blank-subtracted sensorgrams, and were fit to a 1:1 binding model in Biacore® T200 Evaluation Software v.2.0. The affinity constant, KD was calculated as the ratio of rate constants koff/kₒₙ for each VISTA antibody.

[4] = target: T1, monovalent hVISTA-ECD (amino acids …); assay: SPR 37C, Ab on Protein A, hVISTA-ECD 50-5 nM, pH 6.0, average
Method: as §3

[5] = target: T2, hVISTA-ECD 6-His tag (human, UniProt Q9H7M9 33-193); assay: SPR, Ab on Protein A, hVISTA analyte, pH 6.0
T2 construct: also called monovalent hVISTA-ECD; human VISTA
T2 sequence (Q9H7M9 other isoform, or with tags, fused parts or gaps limits assumed): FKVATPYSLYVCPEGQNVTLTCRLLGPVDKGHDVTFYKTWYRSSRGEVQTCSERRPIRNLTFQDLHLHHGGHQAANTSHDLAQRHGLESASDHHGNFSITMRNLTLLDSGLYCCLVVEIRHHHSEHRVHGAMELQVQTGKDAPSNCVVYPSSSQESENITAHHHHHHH

[6] = target: T2, hVISTA-ECD 6-His tag; assay: SPR; KD at pH 6.45 over KD at pH 6.0 (head prints 7.4)
[7] = target: T2, hVISTA-ECD 6-His tag; assay: SPR, Ab on Protein A, hVISTA analyte, pH 6.45
[8] = target: T2, hVISTA-ECD 6-His tag; assay: SPR; kd at pH 6.45 over kd at pH 6.0 (head prints 7.4)
Method: as §1, §2

T1 sequence (Q9H7M9 other isoform, or with tags, fused parts or gaps limits assumed): as above

B1: P1-061520 (41F11 VK_A64G) (antibody, V domains shown)
VH: QVQLVESGGGLVKPGGSLRLSCAASGFTFSDYYMSWIRQAPGKGLEWVSYISNSGSPIYYADSVKGRFTISRDNAKNSLYLQMNSLRAEDTAVYYCARDLPGWYFDLWGRGTLVTVSS
VL: EIVLTQSPATLSLSPGERATLSCRASQSVSSYLAWYQQKPGQAPRLLIYDASNRATGIPARFSGSGSGTDFTLTISSLEPEDFAVYYCQQRNNWPRTFGQGTKVEIKR
notes: tied through the name 41F11 and the A64G change; also called P1-061520-21; VISTA.4.A64G
Kd [1]: 1.42 nM | koff [1]: 0.000871 s⁻¹ | kon [1]: 613000 M⁻¹ s⁻¹ | 7.4 KD/ 6.0 KD [2]: 0.1 | 7.4 kd/ 6.0 kd [2]: 0

B3: P1-069063 (antibody, human IgG1, kappa, V domains shown)
VH: EVQLVESGGGLVQPGKSLRLSCAASGFTLEDYAMHWVRQAPGKGLEWVSGINWNSAEIGYADSVKGRFTISRDNAKNSLYLQMNSLRTEDTALYYCAKVPGYSGGWIDADDEWGQGTMVTVSS
VL: not shown
notes: IgG1.3
Kd [3]: 230 nM | koff [3]: 0.027 s⁻¹ | kon [3]: 120000 M⁻¹ s⁻¹ | Kd [4]: 2.4 nM | koff [4]: 0.0044 s⁻¹ | kon [4]: 1.9e+06 M⁻¹ s⁻¹

B4: P1-068757 (antibody, human IgG1, kappa, V domains shown)
VH: B3 VH with Y32E, A56E, D110E, E112D
VL: not shown
notes: also called P1-068757-9; 029 progeny
Kd [5]: 24 nM | koff [5]: 0.01 s⁻¹ | kon [5]: 420000 M⁻¹ s⁻¹ | 7.4 KD/ 6.0 KD [6]: 5.8 | Kd [7]: 140 nM | koff [7]: 0.018 s⁻¹ | kon [7]: 130000 M⁻¹ s⁻¹ | 7.4 kd/ 6.0 kd [8]: 1.7

B5: P1-068771 (antibody, human IgG1, kappa, V domains shown)
VH: B3 VH with Y32E, A56H, D110E, E112D
VL: not shown
notes: also called P1-068771-10; 029 progeny
Kd [5]: 32 nM | koff [5]: 0.01 s⁻¹ | kon [5]: 320000 M⁻¹ s⁻¹ | 7.4 KD/ 6.0 KD [6]: 11.6 | Kd [7]: 370 nM | koff [7]: 0.022 s⁻¹ | kon [7]: 61000 M⁻¹ s⁻¹ | 7.4 kd/ 6.0 kd [8]: 2.2

B7: P1-068765 (antibody, human IgG1, kappa, V domains shown)
VH: B3 VH with L29D, A56E, D110E, E112D
VL: not shown
notes: also called P1-068765-10; 029 progeny
Kd [5]: 29 nM | koff [5]: 0.0045 s⁻¹ | kon [5]: 150000 M⁻¹ s⁻¹ | 7.4 KD/ 6.0 KD [6]: 14.2 | Kd [7]: 420 nM | koff [7]: 0.013 s⁻¹ | kon [7]: 31000 M⁻¹ s⁻¹ | 7.4 kd/ 6.0 kd [8]: 2.8

B13: P1-068775 (antibody, human IgG1, kappa, V domains shown)
VH: B3 VH with Y32E, N52D, A56E, G104H, D110E, E112D
VL: not shown
notes: also called P1-068775-8; 029 progeny
Kd [5]: 77 nM | koff [5]: 0.009 s⁻¹ | kon [5]: 120000 M⁻¹ s⁻¹ | 7.4 KD/ 6.0 KD [6]: 2.8 | Kd [7]: 220 nM | koff [7]: 0.017 s⁻¹ | kon [7]: 77000 M⁻¹ s⁻¹ | 7.4 kd/ 6.0 kd [8]: 1.8

B14: P1-069065 (antibody, human IgG1, kappa, V domains shown)
VH: B3 VH with Y32E, A56D, E57D, D110F, E112V
VL: not shown
notes: IgG1.3
Kd [3]: 39 nM | koff [3]: 0.0023 s⁻¹ | kon [3]: 59000 M⁻¹ s⁻¹ | Kd [4]: 0.38 nM | koff [4]: 0.00022 s⁻¹ | kon [4]: 570000 M⁻¹ s⁻¹

B18: P1-069067 (antibody, human IgG1, kappa, V domains shown)
VH: B3 VH with E30D, A56E
VL: not shown
notes: IgG1.3
Kd [3]: 290 nM | koff [3]: 0.027 s⁻¹ | kon [3]: 100000 M⁻¹ s⁻¹ | Kd [4]: 2.7 nM | koff [4]: 0.0045 s⁻¹ | kon [4]: 1.7e+06 M⁻¹ s⁻¹

B19: P1-068748 (antibody, human IgG1, kappa, V domains shown)
VH: QVQLVESGGGVVQPGRSLRLSCAASGFTFSHHAMHWVRQAPGKGLEWVAIIWYDGSNDDYADSVKGRFTISRDNSKNTLYLQMNSLRAEDTAVYYCARDSGFYDSYYFDYWGQGTLVTVSS
VL: EIVLTQSPATLSLSPGERATLSCRASQSVSSSYLAWYQQKPGQAPRLLIYDASNRATGIPARFSGSGSGTDFTLTISSLEPEDFATYYCQQYNSYPYTFGQGTKLEIKR
notes: IgG1.3; also called P1-068748-6
Kd [1]: 920 nM | koff [1]: 0.036 s⁻¹ | kon [1]: 40000 M⁻¹ s⁻¹ | 7.4 KD/ 6.0 KD [2]: 212 | 7.4 kd/ 6.0 kd [2]: 9.9 | Kd [4]: 1 nM | koff [4]: 0.0015 s⁻¹ | kon [4]: 1.4e+06 M⁻¹ s⁻¹

Results, then the binder that gave them:

Kd [1]: 6900 nM | koff [1]: 0.016 s⁻¹ | kon [1]: 2400 M⁻¹ s⁻¹ | 7.4 KD/ 6.0 KD [2]: 696 | 7.4 kd/ 6.0 kd [2]: 7
B2: P1-070976 (41F11_VH_T28P_Y50W_S55E_D95H_L96E_P97E_Y100E; Vk_A64G) (antibody, V domains shown)
VH: B1 VH with T28P, Y50W, S56E, D99H, L100E, P101E, Y104E
VL: EIVLTQSPATLSLSPGERATLSCRASQSVSSYLAWYQQKPGQAPRLLIYDASNRATGIPARFSGSGSGTDFTLTISSLEPEDFAVYYCQQRNNWPRTFGQGTKVEIK
notes: also called P1-070976-11

Kd [1]: 3400 nM | koff [1]: 0.044 s⁻¹ | kon [1]: 13000 M⁻¹ s⁻¹ | 7.4 KD/ 6.0 KD [2]: 625 | 7.4 kd/ 6.0 kd [2]: 18.9
B6: P1-070868 (P1-068761_E55A) (antibody, human IgG1, kappa, V domains shown)
VH: B3 VH with Y32E, G104H, D110E, E112V
VL: not shown
notes: IgG1.3; also called P1-070868-6

Kd [1]: 4200 nM | koff [1]: 0.035 s⁻¹ | kon [1]: 8400 M⁻¹ s⁻¹ | 7.4 KD/ 6.0 KD [2]: 396 | 7.4 kd/ 6.0 kd [2]: 14.6
B8: P1-070914 (P1-068767_E30D_D52N) (antibody, human IgG1, kappa, V domains shown)
VH: B3 VH with E30D, A56E, E57N, D110E, E112D
VL: not shown
notes: IgG1.3; also called P1-070914-3

Kd [3]: 18 nM | koff [3]: 0.0023 s⁻¹ | kon [3]: 130000 M⁻¹ s⁻¹ | Kd [4]: 0.22 nM | koff [4]: 0.00029 s⁻¹ | kon [4]: 1.3e+06 M⁻¹ s⁻¹
B9: P1-069075 (antibody, human IgG1, kappa, V domains shown)
VH: B3 VH with N54D, G104H, D110E, E112V
VL: not shown
notes: IgG1.3

Kd [1]: 3700 nM | koff [1]: 0.038 s⁻¹ | kon [1]: 10000 M⁻¹ s⁻¹ | 7.4 KD/ 6.0 KD [2]: 563 | 7.4 kd/ 6.0 kd [2]: 19.4
B10: P1-070916 (P1-068767_D52N_E55A) (antibody, human IgG1, kappa, V domains shown)
VH: B3 VH with E57N, D110E, E112D
VL: not shown
notes: IgG1.3; also called P1-070916-6

Kd [3]: 31 nM | koff [3]: 0.0019 s⁻¹ | kon [3]: 60000 M⁻¹ s⁻¹ | Kd [4]: 0.19 nM | koff [4]: 0.00012 s⁻¹ | kon [4]: 630000 M⁻¹ s⁻¹
B11: P1-069077 (antibody, human IgG1, kappa, V domains shown)
VH: B3 VH with Y32E, A56D, D110F, E112V
VL: not shown
notes: IgG1.3

Kd [3]: 84 nM | koff [3]: 0.0075 s⁻¹ | kon [3]: 90000 M⁻¹ s⁻¹ | Kd [4]: 0.86 nM | koff [4]: 0.0012 s⁻¹ | kon [4]: 1.4e+06 M⁻¹ s⁻¹
B12: P1-069069 (antibody, human IgG1, kappa, V domains shown)
VH: B3 VH with E30D, A56E, E112V
VL: not shown
notes: IgG1.3

Kd [1]: 350 nM | koff [1]: 0.024 s⁻¹ | kon [1]: 67000 M⁻¹ s⁻¹ | 7.4 KD/ 6.0 KD [2]: 34.5 | 7.4 kd/ 6.0 kd [2]: 8.6
B15: P1-070908 (P1-068767_E55A) (antibody, human IgG1, kappa, V domains shown)
VH: B3 VH with N52D, E57N, D110E, E112D
VL: not shown
notes: IgG1.3; also called P1-070908-6

Kd [1]: 4400 nM | koff [1]: 0.029 s⁻¹ | kon [1]: 6500 M⁻¹ s⁻¹ | 7.4 KD/ 6.0 KD [2]: 731 | 7.4 kd/ 6.0 kd [2]: 15.3
B16: P1-070906 (P1-068767_D52N) (antibody, human IgG1, kappa, V domains shown)
VH: B3 VH with A56E, E57N, D110E, E112D
VL: not shown
notes: IgG1.3; also called P1-070906-6

Kd [3]: 93 nM | koff [3]: 0.004 s⁻¹ | kon [3]: 43000 M⁻¹ s⁻¹ | Kd [4]: 0.73 nM | koff [4]: 0.00051 s⁻¹ | kon [4]: 700000 M⁻¹ s⁻¹
B17: P1-069071 (antibody, human IgG1, kappa, V domains shown)
VH: B3 VH with Y32E, E57D, G104E, D110F, E112V
VL: not shown
notes: IgG1.3

From US20230192860A1 (Bristol-Myers Squibb, published 2023)
